Experimental data taken from patent publication US10618965 (dated 2020).
Changes are numbered by the printed parent chain.

T1: human FcgRIIa(R) (human)
T1 chain: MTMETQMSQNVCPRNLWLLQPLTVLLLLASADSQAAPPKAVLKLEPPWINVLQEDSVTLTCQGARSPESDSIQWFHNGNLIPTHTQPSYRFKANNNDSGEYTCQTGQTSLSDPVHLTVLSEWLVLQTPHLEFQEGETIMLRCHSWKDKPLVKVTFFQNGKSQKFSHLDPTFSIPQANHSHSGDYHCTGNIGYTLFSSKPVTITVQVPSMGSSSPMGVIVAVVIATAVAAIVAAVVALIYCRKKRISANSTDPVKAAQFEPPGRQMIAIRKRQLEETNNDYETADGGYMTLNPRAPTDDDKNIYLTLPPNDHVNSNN

T2: human FcgRIIb (human)
T2 chain: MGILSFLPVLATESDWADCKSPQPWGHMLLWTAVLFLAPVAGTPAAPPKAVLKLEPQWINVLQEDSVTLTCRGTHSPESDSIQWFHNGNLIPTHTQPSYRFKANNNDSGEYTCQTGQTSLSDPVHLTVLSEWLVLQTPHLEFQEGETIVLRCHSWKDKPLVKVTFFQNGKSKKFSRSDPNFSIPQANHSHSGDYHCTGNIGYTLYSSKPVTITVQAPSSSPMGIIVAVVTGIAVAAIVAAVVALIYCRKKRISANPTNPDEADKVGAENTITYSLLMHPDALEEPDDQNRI

B1: IL6R-PD081 (antibody)
chain 1: QVQLQESGPGLVKPSETLSLTCAVSGHSISHDHAWSWVRQPPGEGLEWIGFISYSGITNYNPSLQGRVTISRDNSKNTLYLQMNSLRAEDTAVYYCARSLARTTAMDYWGEGTLVTVSSASTKGPSVFPLAPSSKSTSGGTAALGCLVKDYFPEPVTVSWNSGALTSGVHTFPAVLQSSGLYSLSSVVTVPSSSLGTQTYICNVNHKPSNTKVDKKVEPKSCDKTHTCPPCPAPELLGEDSVFLFPPKPKDTLYISRTPEVTCVVVDVSHEDPEVKFNWYVDGVEVHNAKTKPREEQYNSTYRVVSVLTVLHQDWLNGKEYKCKVSNKALPAPIEKTISKAKGQPREPQVYTLPPSRDELTKNQVSLTCLVKGFYPSDIAVEWESNGQPENNYKTTPPVLDSDGSFFLYSKLTVDKSRWQQGNVFSCSVMHEALHYHYTQKSLSLSP
chain 2: DIQMTQSPSSLSASVGDRVTITCRASQDISSYLNWYQQKPGKAPKLLIYYTSRLHSGVPSRFSGSGSGTDFTFTISSLQPEDIATYYCQQGNTLPYTFGQGTKVEIK
B2: IL6R-PD097 (antibody)
chain 1: B1 chain 1 with E239G, S241D
chain 2: B1 chain 2
B3: IL6R-PD087 (antibody)
chain 1: B1 chain 1 with E239M
chain 2: B1 chain 2
B4: IL6R-PD043 (antibody)
chain 1: B1 chain 1 with L236Y, E239G
chain 2: B1 chain 2
B5: IL6R-PD080 (antibody)
chain 1: B1 chain 1 with E239A
chain 2: B1 chain 2
B6: IL6R-PD079 (antibody)
chain 1: B1 chain 1 with E239A
chain 2: B1 chain 2
B7: IL6R-PD042 (antibody)
chain 1: B1 chain 1 with L236W, E239G
chain 2: B1 chain 2
B8: IL6R-PD082 (antibody)
chain 1: B1 chain 1 with E239F
chain 2: B1 chain 2
B9: IL6R-PD095 (antibody)
chain 1: B1 chain 1 with E239Y
chain 2: B1 chain 2
B10: IL6R-PD094 (antibody)
chain 1: B1 chain 1 with E239W
chain 2: B1 chain 2
B11: IL6R-PD086 (antibody)
chain 1: B1 chain 1 with E239L
chain 2: B1 chain 2
B12: F39 (antibody)
chain 1: B1 chain 1 with E239G, D240P, S256T
chain 2: not shown
B13: F38 (antibody)
chain 1: B1 chain 1 with E239G, D240P, S256T, Y436W
chain 2: not shown
B14: IgG1-v4 (antibody)
chain 1: not shown
chain 2: B1 chain 2
B15: IgG1-v2 (antibody)
chain 1: not shown
chain 2: B1 chain 2
B16: IgG1-v1 (antibody)
chain 1: not shown
chain 2: B1 chain 2
B17: F1009 (antibody)
chain 1: B1 chain 1 with L237R, E239G, D240P, S241K, T252V, T309Q, V310P, Q313A, Y438V
chain 2: not shown
B18: F821 (antibody)
chain 1: B1 chain 1 with L237R, E239G, D240P, S241K
chain 2: not shown
B19: F939 (antibody)
chain 1: B1 chain 1 with L237R, E239G, D240P, S241K, Y438V
chain 2: not shown
B20: F1324 (antibody)
chain 1: B1 chain 1 with L236A, L237A, E239G, D240P, Y438V
chain 2: not shown
B21: F1317 (antibody)
chain 1: B1 chain 1 with E239G, D240P, S241K, P331K, Y438V
chain 2: not shown
B22: F1318 (antibody)
chain 1: B1 chain 1 with E239G, D240P, S241K, P331R, Y438V
chain 2: not shown
B23: F1356 (antibody)
chain 1: B1 chain 1 with G238R, E239G, D240P, L330R, Y438V
chain 2: not shown
B24: F1333 (antibody)
chain 1: B1 chain 1 with L237R, G238R, E239G, D240P, S241K, Y438V
chain 2: not shown
B25: F1325 (antibody)
chain 1: B1 chain 1 with L236A, L237A, E239G, D240P, N299A, Y438V
chain 2: not shown
B26: F1315 (antibody)
chain 1: B1 chain 1 with E239K, D240P, S241K, Y438V
chain 2: not shown
B27: F1316 (antibody)
chain 1: B1 chain 1 with E239R, D240P, S241K, Y438V
chain 2: not shown
B28: F890 (antibody)
chain 1: B1 chain 1 with E239G, D240P, Y438V
chain 2: not shown
B29: IgG1-v3 (antibody)
chain 1: not shown
chain 2: B1 chain 2
B30: IgG1-v5 (antibody)
chain 1: B1 chain 1 with E239G, Y254M, S269E, L330F, Y436N
chain 2: B1 chain 2
B31: IgG1-F157 (antibody)
chain 1: B1 chain 1 with E239G, D240P, Y254M, P259A, V310P, M430L
chain 2: not shown
B32: IgG1-F424 (antibody)
chain 1: B1 chain 1 with E239G, D240P, S241K, Y254M, P259A, V310P, M430L
chain 2: not shown

Target: T1, human FcgRIIa(R)
Test: SPR

Binder | Kd
B1 | 38000 nM
B2 | 3500 nM
B3 | 22000 nM
B4 | 26000 nM
B5 | 21000 nM
B6 | 32000 nM
B7 | 16000 nM
B8 | 14000 nM
B9 | 7900 nM
B10 | 7200 nM
B11 | 18000 nM

Target: human FcRn (with beta2-microglobulin) (human)
Sequence (chain, as listed by the source, chain 1 of 2): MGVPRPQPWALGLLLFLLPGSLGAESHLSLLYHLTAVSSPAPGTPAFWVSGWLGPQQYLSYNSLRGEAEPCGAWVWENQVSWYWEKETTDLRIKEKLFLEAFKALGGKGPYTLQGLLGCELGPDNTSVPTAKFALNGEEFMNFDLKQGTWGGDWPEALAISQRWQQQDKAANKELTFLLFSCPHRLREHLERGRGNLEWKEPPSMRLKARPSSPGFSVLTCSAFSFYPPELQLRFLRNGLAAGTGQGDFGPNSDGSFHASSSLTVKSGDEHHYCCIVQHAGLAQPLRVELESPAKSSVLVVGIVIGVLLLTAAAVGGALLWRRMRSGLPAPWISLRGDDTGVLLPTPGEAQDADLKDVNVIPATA
Sequence (chain, as listed by the source, chain 2 of 2): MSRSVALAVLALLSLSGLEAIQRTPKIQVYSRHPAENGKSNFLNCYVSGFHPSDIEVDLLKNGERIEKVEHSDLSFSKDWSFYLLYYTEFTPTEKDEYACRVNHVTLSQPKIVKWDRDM
Test: SPR, neutral pH

Binder | Kd
B12 | 300 nM
B13 | 100 nM

Target: T2, human FcgRIIb
Test: SPR

Binder | Kd
B14 | 11000 nM
B15 | 2300 nM
B16 | 1100 nM

Target: human FcRn (with beta2-microglobulin) (human)
Test: SPR, pH 7.0

Binder | Kd
B17 | 12 nM
B18 | 310 nM
B19 | 150 nM

Target: human FcRn (with beta2-microglobulin) (human)
Test: SPR, pH 7.0
Remark: another data set of the same source

Binder | Kd
B20 | 132 nM
B21 | 138 nM
B17 | 12 nM
B22 | 143 nM
B23 | 158 nM
B24 | 123 nM
B25 | 213 nM
B26 | 152 nM
B19 | 153 nM
B27 | 149 nM
B28 | 107 nM

Target: T2, human FcgRIIb
Test: SPR
Remark: another data set of the same source

Binder | Kd
B29 | 13 nM
B30 | 450 nM
B16 | 1100 nM

Target: human FcgRIIIa(V) (human)
Sequence (chain, as listed by the source): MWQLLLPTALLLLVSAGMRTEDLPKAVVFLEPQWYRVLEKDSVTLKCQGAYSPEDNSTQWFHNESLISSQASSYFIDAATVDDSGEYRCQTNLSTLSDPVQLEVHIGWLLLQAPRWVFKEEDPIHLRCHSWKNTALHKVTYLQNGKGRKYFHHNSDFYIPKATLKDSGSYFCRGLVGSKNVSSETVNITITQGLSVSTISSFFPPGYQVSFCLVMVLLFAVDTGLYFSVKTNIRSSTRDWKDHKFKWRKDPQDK
Test: SPR

Binder | Kd
B3 | 37000 nM
B6 | 37000 nM
B8 | 43000 nM
B11 | 41000 nM

Target: human FcRn (with beta2-microglobulin) (human)
Test: SPR, pH 7.0
Remark: another data set of the same source

Binder | Kd
B31 | 150 nM
B32 | 94 nM

Target: human FcgRIa (human)
Sequence (chain, as listed by the source): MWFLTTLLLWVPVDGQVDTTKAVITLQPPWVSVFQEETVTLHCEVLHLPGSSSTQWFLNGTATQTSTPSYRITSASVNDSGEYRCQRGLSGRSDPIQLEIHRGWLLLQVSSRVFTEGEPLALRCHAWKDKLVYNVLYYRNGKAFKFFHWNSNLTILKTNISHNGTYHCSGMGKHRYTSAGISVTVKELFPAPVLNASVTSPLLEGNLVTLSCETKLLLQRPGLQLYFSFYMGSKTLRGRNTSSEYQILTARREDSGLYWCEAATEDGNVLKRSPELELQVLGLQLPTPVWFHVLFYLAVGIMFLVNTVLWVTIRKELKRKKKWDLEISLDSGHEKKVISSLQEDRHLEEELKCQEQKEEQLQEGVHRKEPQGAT
Test: SPR

Binder | Kd
B1 | 340 nM
B2 | 4.9 nM
B3 | 52 nM
B4 | 75 nM
B5 | 140 nM
B6 | 140 nM
B7 | 63 nM
B8 | 52 nM
B9 | 93 nM
B10 | 36 nM
B11 | 120 nM

Target: T2, human FcgRIIb
Test: SPR
Remark: another data set of the same source

Binder | Kd
B1 | 3600 nM
B2 | 1400 nM
B3 | 2900 nM
B4 | 1600 nM
B5 | 2000 nM
B6 | 3000 nM
B7 | 2000 nM
B8 | 3400 nM
B9 | 2300 nM
B10 | 2300 nM
B11 | 2600 nM
